From patent publication US20140143908A1 come the findings set out here.

For data set [1], the target named is T1, N-terminal truncated OsT6PP-D56NT.
T1 chain: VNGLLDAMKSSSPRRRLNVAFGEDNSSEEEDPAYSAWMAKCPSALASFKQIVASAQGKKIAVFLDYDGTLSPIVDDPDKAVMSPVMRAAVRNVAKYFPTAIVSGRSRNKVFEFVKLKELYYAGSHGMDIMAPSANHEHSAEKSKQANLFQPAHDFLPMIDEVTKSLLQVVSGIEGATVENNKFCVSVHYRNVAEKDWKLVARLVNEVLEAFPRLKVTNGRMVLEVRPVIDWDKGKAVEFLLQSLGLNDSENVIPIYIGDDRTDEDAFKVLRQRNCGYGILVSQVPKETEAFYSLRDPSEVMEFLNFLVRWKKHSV

Data set [2] has as its target T2, Oryza sativa trehalose-6-phosphate phosphatase, wild type (OsT6PP-WT).
T2 chain: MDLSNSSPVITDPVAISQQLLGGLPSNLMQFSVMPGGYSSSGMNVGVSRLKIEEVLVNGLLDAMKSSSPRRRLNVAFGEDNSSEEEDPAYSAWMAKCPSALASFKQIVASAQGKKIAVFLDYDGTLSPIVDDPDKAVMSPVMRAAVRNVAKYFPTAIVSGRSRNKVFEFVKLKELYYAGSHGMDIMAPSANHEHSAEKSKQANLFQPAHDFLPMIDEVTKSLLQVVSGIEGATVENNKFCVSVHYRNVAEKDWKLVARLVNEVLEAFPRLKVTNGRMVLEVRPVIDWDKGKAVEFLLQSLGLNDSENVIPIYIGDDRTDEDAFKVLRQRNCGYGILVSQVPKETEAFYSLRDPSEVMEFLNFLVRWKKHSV

Data set [3] concerns the target Oryza sativa trehalose-6-phosphate phosphatase, wild type (OsT6PP-WT) (Oryza sativa) (UniProt Q75WV3). As to the kind of experiment: cell-based or functional assay.

B1: Oryza sativa trehalose-6-phosphate phosphatase single modification H244D (OsT6PP-H244D) (protein)
chain: MDLSNSSPVITDPVAISQQLLGGLPSNLMQFSVMPGGYSSSGMNVGVSRLKIEEVLVNGLLDAMKSSSPRRRLNVAFGEDNSSEEEDPAYSAWMAKCPSALASFKQIVASAQGKKIAVFLDYDGTLSPIVDDPDKAVMSPVMRAAVRNVAKYFPTAIVSGRSRNKVFEFVKLKELYYAGSHGMDIMAPSANHEHSAEKSKQANLFQPAHDFLPMIDEVTKSLLQVVSGIEGATVENNKFCVSVDYRNVAEKDWKLVARLVNEVLEAFPRLKVTNGRMVLEVRPVIDWDKGKAVEFLLQSLGLNDSENVIPIYIGDDRTDEDAFKVLRQRNCGYGILVSQVPKETEAFYSLRDPSEVMEFLNFLVRWKKHSV
As for B1, in data set [1], the “fold increase of T6PP activity” value was “a 1.7 fold increase in T6PP activity was observed when N-terminal truncated OsT6PP-D56NT was mixed with OsT6PP-H244D”. In data set [2], this molecule yielded a T6PP activity, trehalose formed (µM), 20 min, OsT6PP-WT (1 µg/ml) with 0.5 µg/mL OsT6PP-H244D; WT alone 28.7 of 34.9 µM; a T6PP activity, trehalose formed (µM), 20 min, OsT6PP-WT (1 µg/ml) with 1 µg/mL OsT6PP-H244D; WT alone 28.7 of 40.1 µM; a T6PP activity, trehalose formed (µM), 20 min, OsT6PP-WT (1 µg/ml) with 2 µg/mL OsT6PP-H244D; WT alone 28.7 of 52.3 µM; a T6PP activity, trehalose formed (µM), 20 min, OsT6PP-WT (1 µg/ml) with 5 µg/mL OsT6PP-H244D; WT alone 28.7 of 71.7 µM. In data set [2], the T6PP activity, trehalose formed (µM), 20 min, OsT6PP-WT (1 µg/ml) with 10 µg/mL OsT6PP-H244D; WT alone 28.7, H244D alone 2.2 came to 77.7 µM; the T6PP activity, trehalose formed (µM), 20 min, OsT6PP-WT (1 µg/ml) with 20 µg/mL OsT6PP-H244D; WT alone 28.7, H244D alone 6.2 was 101 µM; the “fold increase of T6PP activity” value is recorded as “An approximately 3-fold increased T6PP activity was observed when OsT6PP-WT was assayed in presence of OsT6PP-H244D”; the “trehalose 6-phosphate phosphatase activity (in vitro)” value is “Increased trehalose 6-phosphate phosphatase activity (in vitro) of OsT6PP-WT is observed in the presence of its catalytically inefficient variants, including OsT6PP-H244D, OsT6PP-H244S and OsT6PP-S242E”. Besides, in data set [3], the Trehalose formed (µM), 20 min, mixture of OsT6PP-WT (1 µg/ml) and OsT6PP-H244D (10 µg/ml); WT alone 25.3, H244D alone 1.1 was determined as 89.5 µM; the Trehalose formed (µM), 40 min, mixture of OsT6PP-WT (1 µg/ml) and OsT6PP-H244D (10 µg/ml); WT alone 33.6, H244D alone 4.6 was determined as 155 µM; the Trehalose formed (µM), 60 min, mixture of OsT6PP-WT (1 µg/ml) and OsT6PP-H244D (10 µg/ml); WT alone 36.8, H244D alone 5.9 came out at 220 µM.

B2: OsT6PP-H244S (protein)
chain: MDLSNSSPVITDPVAISQQLLGGLPSNLMQFSVMPGGYSSSGMNVGVSRLKIEEVLVNGLLDAMKSSSPRRRLNVAFGEDNSSEEEDPAYSAWMAKCPSALASFKQIVASAQGKKIAVFLDYDGTLSPIVDDPDKAVMSPVMRAAVRNVAKYFPTAIVSGRSRNKVFEFVKLKELYYAGSHGMDIMAPSANHEHSAEKSKQANLFQPAHDFLPMIDEVTKSLLQVVSGIEGATVENNKFCVSVSYRNVAEKDWKLVARLVNEVLEAFPRLKVTNGRMVLEVRPVIDWDKGKAVEFLLQSLGLNDSENVIPIYIGDDRTDEDAFKVLRQRNCGYGILVSQVPKETEAFYSLRDPSEVMEFLNFLVRWKKHSV
With B2, the “trehalose 6-phosphate phosphatase activity (in vitro)” value in data set [2] was “Increased trehalose 6-phosphate phosphatase activity (in vitro) of OsT6PP-WT is observed in the presence of its catalytically inefficient variants, including OsT6PP-H244D, OsT6PP-H244S and OsT6PP-S242E”.

B3: OsT6PP-S242E (protein)
chain: MDLSNSSPVITDPVAISQQLLGGLPSNLMQFSVMPGGYSSSGMNVGVSRLKIEEVLVNGLLDAMKSSSPRRRLNVAFGEDNSSEEEDPAYSAWMAKCPSALASFKQIVASAQGKKIAVFLDYDGTLSPIVDDPDKAVMSPVMRAAVRNVAKYFPTAIVSGRSRNKVFEFVKLKELYYAGSHGMDIMAPSANHEHSAEKSKQANLFQPAHDFLPMIDEVTKSLLQVVSGIEGATVENNKFCVEVHYRNVAEKDWKLVARLVNEVLEAFPRLKVTNGRMVLEVRPVIDWDKGKAVEFLLQSLGLNDSENVIPIYIGDDRTDEDAFKVLRQRNCGYGILVSQVPKETEAFYSLRDPSEVMEFLNFLVRWKKHSV
B3: the “trehalose 6-phosphate phosphatase activity (in vitro)” value in data set [2] was “Increased trehalose 6-phosphate phosphatase activity (in vitro) of OsT6PP-WT is observed in the presence of its catalytically inefficient variants, including OsT6PP-H244D, OsT6PP-H244S and OsT6PP-S242E”.
